Source: patent publication US9757471B2, “Protozoan variant-specific surface proteins (VSP) as carriers for oral drug delivery” (priority 2012, dated 2017)
“Also recorded” adds a separate entry of the source.

Key:
[1] = format: physicochemical; conditions: in the presence of VSP; no degradation after incubation at pH 2
Experimental: To assess in vitro the capacity of VSP carriers to protect IL-2 from degradation, the capacity of a VSP carrier (e.g., recombinant VSP1267) to protect human IL-2 from conditions similar to those present in the GIT was evaluated. The capacity of the VSP to protect IL-2 from degradation caused by extreme pHs or by enzymatic proteolysis (e.g., by trypsin and/or pancreatine) was assayed using the methods described in the Examples above.
IL-2 alone or mixed with VSP carrier was incubated at different pHs or with different concentration of proteolytic enzymes such as trypsin. The presence of IL-2 after the pH and proteolyitc enzyme challenges was detected using Coomassie stain of SDS-PAGE gels.

trypsin [2] = format: in vitro ADME; conditions: hGH combined with chimeric VSP protein (SEQ ID NO: 589) derived from T. thermophila and G. intestinalis
Text: (§1) To determine if VSP-like proteins retain the Giardia VSP extracellular domain properties, and therefore can be used as VSP carriers or as components of chimeric VSP proteins, a DNA fragment of a Tetrahymena thermophila VSP-like protein encoding a VSP domain (TTHERM_00826790 hypothetical protein; SEQ ID NO: 590) was modified using stander molecular biology techniques to generate a chimeric VSP. The chimeric VSP protein (SEQ ID NO: 589) comprised the sequences encoding the signal peptide (SEQ ID NO: 591) of Giardia intestinalis VSP1267 and a His6 purification tag fused respectively to the amino terminus and carboxy terminus of the sequence of a VSP domain (SEQ ID NO: 592) located between amino acid positions 977 and 1465 of the VSP-like protein from Tetrahymena (SEQ ID NO: 590).
(§2) The chimeric VSP was cloned into a bacmid for expression in Sf9 insect cells. Once expressed and secreted to the culture supernatant, the chimeric VSP protein was purified on a Nickel column as described in Example 2.
(§3) The chimeric VSP protein was used to verify the stability of hGH to pH and trypsin sensitivity.

[3] = format: physicochemical; conditions: hGH combined with chimeric VSP protein (SEQ ID NO: 589) derived from T. thermophila and G. intestinalis
Text: as §1, §2, §3

trypsin [4] = test: hGH stability to trypsin, without or with VSP carrier (Western blot, silver staining); format: in vitro ADME
Experimental: (§4) To evaluate in vitro the capacity of a VSP carrier to protect bioactive peptides from degradation, we evaluated the capacity of recombinant VSP1267 to protect human growth hormone (Somatotropin, hGH) (Biosidus, Argentina), an 191 amino acids long protein, from conditions similar to those present in the GIT. Similar to the previous analysis performed with the VSPs alone, the capacity of the VSP to protect hGH from degradation caused by extreme pHs or by enzymatic proteolysis was assayed.
hGH was also treated for 90 min at 37° C. with several concentrations of trypsin (0, 100, 150, 200, and 500 μg/mL). […] This protective effect was observed up to a 150 μg/mL trypsin concentration.

[5] = Serum hGH levels in mice after oral administration of hGH alone or with VSP carrier; format: in vivo; conditions: hGH alone, oral 50 to 800 μg, female Balb/c mice
Experimental: hGH serum levels were tested after oral administration, evaluating different doses and measurement times, to determine the best dose for combination with the VSP carrier VSP1267 (FIG. 11A). As in previous experiments, female Balb/c mice, 7 weeks old, were left without food intake for 2 hours and then received the doses indicated in […] (i.e., 50, 100, 200, 400 and 800 μg of hGH). In a parallel experiment, hGH was administered subcutaneously (FIG. 11A, inset). […] Thus, a direct relationship between absorption and these variables (time and concentration) could not be determined.

[6] = format: physicochemical
Experimental: as §4
The anti-hGH monoclonal antibody was subsequently used to determine the degree of resistance of hGH to different pHs. hGH was incubated at different pHs (1.6, 2.0, 3.8, 5.0, 5.8, 7.0, 8.0, 9.0, 10.0, and 11.0) for 90 minutes.

[7] = pH resistance assay of VSPs on Giardia trophozoites (immunofluorescence); format: physicochemical; conditions: trophozoites in RPMI, pH 1 to pH 10, 90 minutes, immunofluorescence microscopy
Experimental: To determine whether VSPs are resistant to variable pH and to proteolytic digestion, two different Giardia isolates (clonal trophozoite populations) were treated with trypsin and with variable pH and the effect of those conditions on the VSP expressed by each isolate were monitored using immunofluorescence assays.
For the pH resistance assay. Giardia parasites were resuspended in RPMI cell culture medium at variable pHs, from pH 1 to pH 10. in 1 pH unit increments (only pH 1, 3, 5 and 10 are shown in FIG. 2B). Giardia parasites were kept at the different pHs for 90 minutes, washed, and then incubated with the corresponding monoclonal antibody.

trypsin [8] = test: Western blot of VSPs after trophozoite trypsinization; format: in vitro ADME; conditions: trophozoites, trypsin 200 μg/mL and 2 mg/mL, 90 min at 37° C., PBS pH 7.4, Western blot
Experimental: Giardia parasite clones WB-9B10, WB-1267 and GS-H7 (expressing, respectively, the VSP9B10, VSP1267 and VSPH7 VSPs) were resuspended in PBS at pH 7.4 and treated for 90 min at 37° C. with variable concentrations of trypsin (200 μg/mL and 2 mg/mL). Then, the parasites were lysed and equivalent protein amounts were applied to each lane in the SDS-PAGE gels.

Molecule: IL-10: human interleukin-10, anti-inflammatory cytokine
- resistance to low pH [1]: resistant

Molecule: Somatotropin [hGH]
- protection of hGH from degradation by trypsin (trypsin [2]): able to protect hGH from degradation
- protection of hGH from degradation at low pH [3]: able to protect hGH from degradation
- protection of hGH from trypsin degradation (trypsin [4]; VSP carrier added at 3:1 VSP/hGH (1:3 hGH to VSP) ratio): able to protect hGH from trypsin degradation; also recorded: protects hGH from trypsin degradation
- hGH degradation by trypsin (trypsin [4]; hGH alone, 90 min at 37° C., trypsin 100 to 500 μg/mL): rapidly degraded even at the lowest protease concentrations; also recorded: completely proteolyzed
- oral absorption of hGH (serum levels) compared with subcutaneous [5]: much lower levels than subcutaneously absorption
- variability of oral absorption regarding times and amounts [5]: highly variable
- change of hGH degradation levels with VSP carrier at different pHs [6]: no significant changes

B1: VSPH7: Giardia variant-specific surface protein of the GS/M isolate, clone GS-H7 (Uniprot: Q24992) (protein, listed as Giardia intestinalis)
chain: MFLLINCLIASTLAGACSTTQANCVAEKCEMVGETEICTQCKQNYVPINGVCEAAASSNTKCQKASADEASDQTCGKCLSTTFMYKGGCYDKTGNLGRIICKTEGSDAGKCGACNDEKGFFDNPDAANNVDSCISCGDATGVTIPGSSTKTYKGVAGCAKCTKPSQISENTGTKEATCTECNANLYLKAVSSPTSATSCVSAEDCKTGYFPTTDTTDSKKKCLTCSTADKGGIDGCSACELLPSTTRASTVLISCSACSTNNLSPLKNECMQDCPAGTYADSNVCKPCHTSCASCKGDNTESSCTACYPGSVLSYGTDNTKGTCIAECTGKYLENCADGQCTATIAGSKYCSKCKSGFVPVNGLCVSAETARAAPPGSTPDKTNGVCTACTEKYFLESGGCYQAEKFPGNTLCTTADAGKCTTCANGQDKDSNGSCPACPTNCASCAKDNTKTCNKCFSGYYLDTAKACKKCSETSGNIQGVENCISCLAPTSPQSSTPVTCYVKTSGGGSGDNSTGGDSGPNLSSGAIAGISVAVIVVVGGLVGFLCWWFVCRGKA
- VSP epitopes after incubation at variable pHs [7]: remained intact
- VSP survival of exposure to trypsin (trypsin [8]): able to survive exposure to trypsin

B2: VSP9B10: Giardia variant-specific surface protein of the WB isolate, clone WB-9B10 (Uniprot:Q9GS24) (protein, listed as Giardia intestinalis)
chain: MFGSFVLAGVLVQIAWAGKATERAQEAQCADNTNCAAEACNVLIGGKLYCSRCNTGFVPINGQCADKEGATDKCKDGSGGDTADQTCGQCAEQTFMYKGGCYEAAQQPGQTMCQAADAGVCTQAAQGYFVPPGADASHQSVIPCGDEEEITVKNDKKYKGVLHCTRCNAPTEAADANAKAATCTACQADRYLKTAKDQATSCVTEQECTGTEGFFAKNGGTKTCEACAETCKTCKTEAAKCTSCKDDKPYLKKDNGSDTGTCVTEAECKTGNTHYPDDTEPKTCKTCAEGTSDGCATCEKGADGAVACKTCGNQKKVQPNKKGCVENCPSNSNDKKTPGTCECVEGYVPEEAGTGCTKKPDPPAAPCNTPGCKTCSEPKTSKEVCTECEDPKALTPTGQCIYGCEHLEGYYEGTSEGGKKACKKCEVENCLLCNENGQCETCKDGYYKKETACAKCDTSCKTCANGEPNGCTSCEAKKALSYEGEGNTGTCKSECKPGTNNCEKCELTVDGTAYCSKCKDANQFPQNGVCSAAAGKAITCTTKGTGVCDKCANGLLRMNGGCYETTKFPGKSVCEEAASAGDTCQVEAPGYHLNNNDLVTCSAGCKTCTSNTVCTECMDGYAKTDNKCTKCATGCATCAGSASNCDTCSTGYYKYKNACVSCTESNSDKTITGVANCANCAPPLNNKGSVLCYLVQSGENTNKSGLSAGAIAGIAVAVIIVVGGLVGFLCWWFMCRGKA
- VSP epitopes after incubation at variable pHs [7]: remained intact
- VSP survival of exposure to trypsin (trypsin [8]): able to survive exposure to trypsin

B3: VSP1267: Giardia variant-specific surface protein expressed by clone WB-1267 (Uniprot:Q07317) (protein, listed as Giardia intestinalis)
chain: MLLIAFYLILSTFAVDCKNSGNSCEAGQCDTIGDTEICMQCNQGKVPINGICTAHSEEAVTNAGCKKNGGTNIEESDKVCGQCGNGYFLHKGGCYKIGEAPGNLICADEASNPGARTAGVCGACKDGYYKNSDAVATADSCIACEDANCATCGGAGENKCTKCIDGYFVGATGNEGGCIKCDATTGPNSYKGVAGCAKCEKPKNAGPAKCIECAADYLKTEADEQTSCVSEAVCREGKTHFPTTDSAGGNKKVCVSCGTTNNGGIENCGECTSKESAARAGTEITCTKCSSNNLSPLGDACLTDCPAGTYAVSGDSGSVCKPCHNTCAGCQTDDRETSCTACYPGYSLLYESNGATGRCVKECTGAFITNCADGQCTANVGGAKYCTQCKDGYAPIDGICTAVAAAGRDVSVCTATGGKCTACTGNYALLSGGCYNTQTLPGKSVCKAVANSNDGKCKTCANGQAPDPATNFCPLCDSTCAECSTKNDADACTKCFPGYYKTGNKCIKCTESSNNGKKIDGIPDCLSCEAPINTGPVICYVKTDGTSDDNSGNGGDSTNKSGLSTGAIAGISVAAFVVVAGLVGFLCWWFICRGKA
- VSP survival of exposure to trypsin (trypsin [8]): able to survive exposure to trypsin
